How the values were obtained:
[1] = target: soluble human FcγRIII (human) (UniProt P08637); test: antigen-capture ELISA: IgG captured on PSA-coated plate, biotinylated soluble human FcγR, NeutrAvidin-AP; background-subtracted, normalized to parent
[2] = target: soluble human FcγRIIb (human) (UniProt P31994); test: as above
[3] = target: soluble human FcγRIIa (human) (UniProt P12318); test: as above
[4] = target: soluble human FcγRIII (human) (UniProt P08637); test: antigen-capture ELISA as for Tables 3-5 but with an anti-TNFα parent IgG; biotinylated soluble human FcγR; normalized to parent
[5] = target: soluble human FcγRIIb (human) (UniProt P31994); test: as above
[6] = target: biotin-labeled soluble FcRn; test: ELISA: biotinylated soluble FcRn on NeutrAvidin plate, IgG supernatant at pH 6.0, anti-human Fab-HRP detection; conditions: scale: % of wild type
[7] = target: biotin-labeled soluble FcRn; test: ELISA: biotinylated soluble FcRn on NeutrAvidin plate, IgG supernatant at neutral pH, anti-human Fab-HRP detection; conditions: scale: % of wild type

Chain of UniProt P31994 (P31994 43-217): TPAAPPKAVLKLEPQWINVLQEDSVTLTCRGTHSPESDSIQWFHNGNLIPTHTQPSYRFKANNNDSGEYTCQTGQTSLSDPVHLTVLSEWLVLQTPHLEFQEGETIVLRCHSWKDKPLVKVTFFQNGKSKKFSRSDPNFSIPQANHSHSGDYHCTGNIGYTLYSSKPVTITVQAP
Chain of UniProt P08637 (P08637 17-208): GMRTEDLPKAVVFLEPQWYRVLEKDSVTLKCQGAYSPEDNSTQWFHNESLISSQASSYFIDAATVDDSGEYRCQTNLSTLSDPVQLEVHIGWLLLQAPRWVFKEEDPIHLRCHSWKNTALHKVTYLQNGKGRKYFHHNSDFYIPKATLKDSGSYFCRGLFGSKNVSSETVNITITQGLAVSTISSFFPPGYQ
Chain of UniProt P12318 (P12318 34-217): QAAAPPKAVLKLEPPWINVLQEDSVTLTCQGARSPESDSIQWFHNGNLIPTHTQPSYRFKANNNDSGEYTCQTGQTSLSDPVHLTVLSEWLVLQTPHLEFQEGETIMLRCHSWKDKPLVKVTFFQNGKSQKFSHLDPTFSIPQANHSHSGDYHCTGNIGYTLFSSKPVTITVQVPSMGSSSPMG

## anti-PSA IgG Fc variant S298V (antibody)
[1]
  relative FcγRIII (relative to parental antibody (=1.0)): 2.8
[2]
  relative FcγRIIb (relative to parental antibody (=1.0)): 0.592

## anti-PSA IgG Fc variant Q295L (antibody)
[1]
  relative FcγRIII (relative to parental antibody (=1.0)): 1.06
[3]
  relative FcγRIIa (relative to parental antibody (=1.0)): 1.44
[2]
  relative FcγRIIb (relative to parental antibody (=1.0)): 1.34

## anti-PSA IgG Fc variant E294N (antibody)
[1]
  relative FcγRIII (relative to parental antibody (=1.0)): 1.14
[2]
  relative FcγRIIb (relative to parental antibody (=1.0)): 0.672

## anti-TNFα IgG Fc variant K290S (antibody)
[4]
  relative FcγRIII (relative to parental antibody (=1.0)): 1.23
[5]
  relative FcγRIIb (relative to parental antibody (=1.0)): 1.4

## anti-CD20 IgG Fc variant D280H (antibody)
[6]
  FcRn 6.0: 91
[7]
  FcRn 7.0: 90

## anti-PSA IgG Fc variant S298N (antibody)
[1]
  relative FcγRIII (relative to parental antibody (=1.0)): 1.42
[2]
  relative FcγRIIb (relative to parental antibody (=1.0)): 0.363

## anti-CD20 IgG Fc variant K290D (antibody)
[6]
  FcRn 6.0: 154
[7]
  FcRn 7.0: 25

## anti-CD20 IgG Fc variant K290P (antibody)
[6]
  FcRn 6.0: 146
[7]
  FcRn 7.0: 34

## anti-PSA IgG Fc variant Y300I (antibody)
[1]
  relative FcγRIII (relative to parental antibody (=1.0)): 1.38
[2]
  relative FcγRIIb (relative to parental antibody (=1.0)): 1.26

## anti-CD20 IgG Fc variant K290T (antibody)
[6]
  FcRn 6.0: 148
[7]
  FcRn 7.0: 8

## anti-PSA IgG Fc variant Y300L (antibody)
[1]
  relative FcγRIII (relative to parental antibody (=1.0)): 1.81
[2]
  relative FcγRIIb (relative to parental antibody (=1.0)): 1.36

## anti-CD20 IgG Fc variant D280K (antibody)
[6]
  FcRn 6.0: 145
[7]
  FcRn 7.0: 131

## anti-CD20 IgG Fc variant D280T (antibody)
[6]
  FcRn 6.0: 82
[7]
  FcRn 7.0: 23

## anti-CD20 IgG Fc variant K290V (antibody)
[6]
  FcRn 6.0: 149
[7]
  FcRn 7.0: 73

## anti-PSA IgG Fc variant S298D (antibody)
[1]
  relative FcγRIII (relative to parental antibody (=1.0)): 2.31
[2]
  relative FcγRIIb (relative to parental antibody (=1.0)): 0.188

## anti-TNFα IgG Fc variant D280H (antibody)
[4]
  relative FcγRIII (relative to parental antibody (=1.0)): 1.24
[5]
  relative FcγRIIb (relative to parental antibody (=1.0)): 0.92

## anti-CD20 IgG Fc variant K290N (antibody)
[6]
  FcRn 6.0: 130
[7]
  FcRn 7.0: 17

## anti-CD20 IgG Fc variant D280A (antibody)
[6]
  FcRn 6.0: 71
[7]
  FcRn 7.0: 51

## anti-PSA IgG Fc variant Q295K (antibody)
[1]
  relative FcγRIII (relative to parental antibody (=1.0)): 1.47
[2]
  relative FcγRIIb (relative to parental antibody (=1.0)): 0.892

## anti-TNFα IgG Fc variant K290G (antibody)
[4]
  relative FcγRIII (relative to parental antibody (=1.0)): 1.64
[5]
  relative FcγRIIb (relative to parental antibody (=1.0)): 1.46

## anti-CD20 IgG Fc variant D280N (antibody)
[6]
  FcRn 6.0: 93
[7]
  FcRn 7.0: 61

## anti-TNFα IgG Fc variant D280Y (antibody)
[4]
  relative FcγRIII (relative to parental antibody (=1.0)): 1.23
[5]
  relative FcγRIIb (relative to parental antibody (=1.0)): 2.14

## anti-TNFα IgG Fc variant D280Q (antibody)
[4]
  relative FcγRIII (relative to parental antibody (=1.0)): 1.19
[5]
  relative FcγRIIb (relative to parental antibody (=1.0)): 0.87
